The domain aggregation screens of Martell et al. (2025)

Test: soluble fraction after stress (log2 fold change); higher = more stays soluble; pooled small domains, quantitative proteomics
Details: stress: pH 4
Outline: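 Small protein domains from pooled custom libraries were exposed to pH 4, then quantified with high-throughput quantitative proteomics. The fold change in how much of each domain remains soluble is read as aggregation propensity. It is given as log2, with higher values meaning more stayed soluble.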

Sequence	soluble fraction (log2)
HMSDGDFLQKIAEEILAQFPDKVKEYQKGKKGLIGFFMGELMKRSKGKADPKVATRILEEILSEKNGSS	-0.609
HMSGPFTELTPREREILSHLAEGQSNKVIARHLQISDGTVKLHVKAILRKLEVHSRVEAAVMAVEHGV	0.0256
HMEMDITIQMRTLVEELNRASDAYYNGRGELMTDYEWDAKFDQLKQLESQSGVVLPDSPTHRV	-1.51
HMITKENYLEKIKEIKVNEFPASMRELYDFFNEATRNGTDWSAYEEGNVKYVVDAYLERLNLLYKSN	-0.892
HMDHFLRRFQVEGLNLEKLLRLAAEREMDLLQVRRSGRRMTGLVAEKRLPELEELAAQGGWALRLGEY	≥ 0.43
HMTIGIGKSLDFNTSGEKAYRIYNFKGAYVGTFKASDMTSLKNEVQKSNVKAGAYMVRSLDGHVNRLIEIK	≥ 0.43
HMTGLSNFEFNQIKLDLMHELTQTPLRLTDLVNRITSFENEKTITVIRFLVDEGILLLKDDTLSVAKID	-1.47
HMGAVPKNYFPAVEKGLQDSVQKGLLAGYPVVGVKAILYDGSYHPVDSSEMAFKTATIQAFKKGFMEA	-0.0216
HMTEKPTREAHILDQLARDGGVLVAALSRELGVSEVTIRSDLRDLEAAGLLQRTHGGAQASSFQTVL	-0.48
HMDEPGTGFKWREDVLLRVMEANGIDTSHRDDFVRHAVKFDNDDNLYLKKAEIEDAAAAWVSEHS	-1.59
HMAPSPEGAAILRESVESVARDQVDRVALTMTARGYTTAEIAAALMVDRSTISRRLYAMRDRYHAQQDNAQ	-0.666
HMADTPQAYIRQMVQEAGADGIMLSTITDRLRARFKDFKVRDLGYAQMRQYMASTGTYDLEKSGRNFRVHL	0.181
HMSDLFKYSPYKTLTEEQYKITYQIIERLKTDLSNGIPRISIIDGGAGTGKSILGIFLLKLLVDAQN	0.321
HMKLKHANGNHPLTQQEKQNMIEEAAKHYGDYMTALGFDWKQDPNSSDTPMRVAKAFVNDLAEGVY	-0.348
HMSENEVQAKVKEIVDRYAGDKSALIAILQDVQDEYRYLPKEALVSIQQQMNIPLSRVYEVATFYDAFS	-0.862
HMENNIRLSVPDTESGQRIDSYLAEQIPGLTRSAVQNLLAEQAVTIAGKAVKKNYKLLGGEDILVQLPEVR	≥ 0.43
HMDAPIIRLLNSLVQRAVTTTASDIHIEPFEGETKVRMRIDGVIIDYVTLQRALHQPLIARIKIMSNLD	-0.237
HMGAVFEFIMEEEEPERIDKLLSSALPDLSRSYLQKLVKEGAVLVNKKEVKPNHKVNPGDVVEISVPEPE	-0.744
HMISKRFQIDEDNSNKRIDIFLTQSLDSISRGIVQQLILENKVEVNGGPVKRNYLIKIGDVIDVKIDL	-0.608

Sequence	soluble fraction (log2)
HMPESYFEMLQKLLETYALPQEGTIYFSAADLARMPQKFEDVIEQTAQKKGGHLVVSKEPKDMDGGFVLV	-1.62
HMGTTMLEVPNFVGEVFKEIDPEKYPNLRLVDSDYTYSNEYEAGKVISQDPVARTQVAEGSTVKLVIS	-0.249
HMTDSDTQDIDVGELRVGHFVFLDLSWIRHPFPLSSFKIQSAEQIKTIRSLGLRRIRYSPGRSGP	-0.882
HMSRTLLVYVTGAVRQPGVYELPEGSRFFDAVKAAGDVLPYAVMEDINMAEPLSDGMKIHIPLDPEQ	-1.01
HMREYRITAEEGHPRIDVFLAGRPEIGLSRSRIQALIDEGQVTLNGAMPKARQAVNPGDVIVVRVPDPE	-0.336
HMTRVDALDQLAAIRFSSHIFAEDQDLRMVVVDGQRIGEGDIVRDEIRLEQITETGVIFEYQGERFPIDV	-2.21
HMQGEVVTNRSVIDMSRAGLSADIIRAKILRSDTNFDVTAKALIELKESGVPDDIIALMLERADS	-0.218
HMTESIHVGSKVTINNNAKRWATGQNIYSGVKGKTYTVIQMNGSRLLLDKVISWINKGDVHLPGS	0.0896
HMKQDFVYNGFVEAKGDDLMVQINYKGETYYVTEGESFGGFTVKSANKDKVVLSGQGGAETVLEFR	-0.536
HMTTQERVSYSAFINDVETGRVAKVVISGYTIEGTRTNNSSFVTERPYGVDSNLSEVLMQNSVSIEGKA	-0.523
HMVGEYTVKKGDTLWKIAGQTLGSPLRYAEIYELNKDVIEEAALGRGKKNSSNGHWIFQGTVLKIPA	-0.255
HMSVDAMDEANERKMAKTFNMIVLGGLLKIRPIVSIESVIKALRKTLPERHHHLIPMNEEAIHIGMDII	-0.288
HMPNYIDAISALLTLKGVGDRKHASTMANILNLQYNSAKQKLDGKRGITLDEVKKVFQYFNEPF	-0.76
HMRKIFPFNPNFITDQRGYFLGMSTSEIDRLHHFRAANKWIQSAQEFQVVTKVSNAWLSEFSPYFNFP	0.298
HMKEEDLPREYTDILGNSVHERLNIMIHDIIEHSQDKPEVAMSPEREEAMHGLRRWMFDHVYH	-0.307
HMNDYIGVDRAKEIALNHARMNESDVQFAKAKLENDDGVVEYEIEFYFGRTEYDYTIDAVSGNIIEYDVEY	-0.0067
HMFIVTDQMQRVLDYITEKEKATNNDLEELLGVKSTRIYTITRKLIQHNLIIPVGKGKNKYYIL	-0.724
HMSILTELDIGDKVEVVAGPFKGIQANITRIEPVRKEVTVILLDAPYQLPVTVDADYLKIIQKS	-0.0376
